Test results: patent publication US20250019449A1

Key:
[1] = target: human CCR8 (human) (UniProt P51685); experiment: flow cytometry on mammalian cells expressing human CCR8
[2] = target: human CCR8 (human) (UniProt P51685); experiment: cell-based or functional assay

Sequence of human CCR8 (human) (P51685 whole entry): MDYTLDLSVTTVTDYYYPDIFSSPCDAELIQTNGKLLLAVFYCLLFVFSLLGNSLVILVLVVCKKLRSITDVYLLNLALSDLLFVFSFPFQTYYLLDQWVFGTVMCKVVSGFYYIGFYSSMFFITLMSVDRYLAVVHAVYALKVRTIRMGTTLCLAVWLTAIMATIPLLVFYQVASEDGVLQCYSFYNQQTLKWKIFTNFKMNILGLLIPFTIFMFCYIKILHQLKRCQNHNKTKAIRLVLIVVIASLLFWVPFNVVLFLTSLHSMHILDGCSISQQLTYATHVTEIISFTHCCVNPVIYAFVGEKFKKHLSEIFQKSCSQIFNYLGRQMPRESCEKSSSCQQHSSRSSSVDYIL

Row | Substance | MFI Fold over Background (fold over background) [1] | IC50 antagonism of EC80 Human CCL1 Gα15/16 Biosensor [2] [nM] | IC50 antagonism of EC80 Human CCL1 Gαz Biosensor [2] [nM]
1 | ADI-26140: Human IgG1 isotype control (antibody) | 2 |  | 
2 | CTL-33364 = Biolegend human CCR8 control IgG clone L263G8 (antibody) | 268 | 1.62 | 0.798
3 | MC148R = virokine from Molluscum contagiosum virus subtype 2 (MOCV) (ligand) |  | 33.5 | 13.8
